The results in this text go back to PMC3531493, “Inhibition of a NEDD8 Cascade Restores Restriction of HIV by APOBEC3G” (PLoS Pathogens, 2012).

The target of one test is CUL5/RBX2 complex (UniProt Q93034).
The target of test [1] is T1, UBE2F residues 26-185 (UBE2F core) (UniProt Q969M7 26-185).
T1 construct: UBE2F, residues 26-185 (UBE2F core); Unlabelled when added to 15N RBX2 RING; 15N-labelled when RBX2 RING was added to it; source: E. coli BL21(DE3)-Star or BL21(DE3), purified (Ni-NTA, TEV cleavage, SEC)
T1 sequence (looked up): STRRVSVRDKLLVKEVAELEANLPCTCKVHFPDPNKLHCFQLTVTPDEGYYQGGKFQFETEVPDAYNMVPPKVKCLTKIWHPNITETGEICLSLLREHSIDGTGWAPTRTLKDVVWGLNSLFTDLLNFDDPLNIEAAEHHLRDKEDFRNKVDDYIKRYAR
Nature of the test: NMR titration; 15N-HSQC of 50 µM 15N-labelled RBX2 RING with unlabelled E2 added (∼100 µM in Fig. 3D; increasing concentrations in Fig. 5D); 20°C; 100 mM NaCl, 1 mM DTT, 25 mM HEPES pH 7.5. The note with it: both partners purified.

The target of a further test is T2, UBE2F, full-length (UniProt Q969M7 1-185).
T2 construct: UBE2F, NEDD8-conjugating enzyme, full-length; Unlabelled in the HSQC experiments on 15N-labelled RBX2 RING; also called NEDD8 E2; NEDD8-conjugating enzyme UBE2F; source: E. coli BL21(DE3)-Star or BL21(DE3), purified (Ni-NTA, TEV cleavage, SEC)
T2 sequence (looked up): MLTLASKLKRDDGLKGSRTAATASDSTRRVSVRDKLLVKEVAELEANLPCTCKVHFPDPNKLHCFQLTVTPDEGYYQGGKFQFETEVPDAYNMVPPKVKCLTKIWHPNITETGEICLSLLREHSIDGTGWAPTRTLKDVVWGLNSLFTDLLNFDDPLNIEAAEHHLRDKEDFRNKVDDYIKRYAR
The test is described as above. The note with it: both partners purified.

CUL5/RBX2 complex, sequence (Q93034 whole entry, the tested form may be a part, one chain of several): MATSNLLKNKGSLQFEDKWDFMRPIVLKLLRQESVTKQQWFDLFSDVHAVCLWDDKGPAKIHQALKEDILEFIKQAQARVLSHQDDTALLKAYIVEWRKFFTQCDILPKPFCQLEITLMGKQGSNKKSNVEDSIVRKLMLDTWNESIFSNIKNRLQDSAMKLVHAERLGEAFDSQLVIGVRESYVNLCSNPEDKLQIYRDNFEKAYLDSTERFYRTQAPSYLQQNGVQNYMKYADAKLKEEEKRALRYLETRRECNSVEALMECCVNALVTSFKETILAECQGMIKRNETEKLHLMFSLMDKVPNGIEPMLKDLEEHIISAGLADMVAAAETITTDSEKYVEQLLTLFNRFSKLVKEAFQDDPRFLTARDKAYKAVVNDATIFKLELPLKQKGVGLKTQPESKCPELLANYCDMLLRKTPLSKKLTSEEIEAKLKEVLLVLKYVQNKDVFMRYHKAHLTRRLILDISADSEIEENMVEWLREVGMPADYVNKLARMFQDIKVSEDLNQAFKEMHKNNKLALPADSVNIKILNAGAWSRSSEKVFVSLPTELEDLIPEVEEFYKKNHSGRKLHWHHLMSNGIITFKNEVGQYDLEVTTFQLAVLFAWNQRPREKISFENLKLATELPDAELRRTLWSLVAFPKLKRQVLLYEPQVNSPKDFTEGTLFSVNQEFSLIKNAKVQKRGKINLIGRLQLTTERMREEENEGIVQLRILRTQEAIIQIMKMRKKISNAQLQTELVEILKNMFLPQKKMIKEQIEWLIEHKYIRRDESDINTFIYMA

Take “UBE2F (N92A) (from UniProt Q969M7 26-185) (enzyme)”: the rate of NEDD8 transfer from UBE2F mutant to CUL5/RBX2 (pulse-chase), against wild-type UBE2F (orders of magnitude (reduction)) with CUL5/RBX2 complex is 3.

B1: RBX2 RING domain (44-113) (domain or fragment, UniProt Q9UBF6 44-113, looked up)
chain: DVECDTCAICRVQVMDACLRCQAENKQEDCVVVWGECNHSFHNCCMSLWVKQNNRCPLCQQDWVVQRIGK
notes: RBX2 (RING-box protein 2), RING domain, residues 44-113; 15N-labelled when the E2 enzymes were added to it; unlabelled when added to 15N UBE2F core; also called RBX2 core domain; source: E. coli BL21(DE3)-Star or BL21(DE3), with ZnCl2, purified (Ni-NTA, TEV cleavage, SEC)
B1: the binding result is given as “binds” in test [1] and “binds” with UBE2F, full-length.
